Test results: US20240376185A1 (SMIVET B V, published 2024)

T1: recombinant tetanus toxin fragment C (rTTC) (Clostridium tetani, UniProt P04958 865-1315)
T1 sequence: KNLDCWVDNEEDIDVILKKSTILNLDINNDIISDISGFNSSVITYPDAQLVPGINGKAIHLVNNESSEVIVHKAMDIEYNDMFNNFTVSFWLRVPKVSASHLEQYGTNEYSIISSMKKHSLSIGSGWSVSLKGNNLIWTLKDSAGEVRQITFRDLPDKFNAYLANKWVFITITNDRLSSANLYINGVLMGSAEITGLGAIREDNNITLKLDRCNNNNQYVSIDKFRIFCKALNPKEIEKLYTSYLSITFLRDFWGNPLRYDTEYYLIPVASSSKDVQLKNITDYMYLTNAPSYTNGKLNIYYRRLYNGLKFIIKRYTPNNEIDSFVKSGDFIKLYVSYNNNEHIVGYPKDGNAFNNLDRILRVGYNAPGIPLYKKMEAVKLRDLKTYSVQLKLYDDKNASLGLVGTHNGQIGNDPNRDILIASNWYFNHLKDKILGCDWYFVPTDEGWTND

B1: SVT02-GS2-SVG13M4-H6 (bispecific antibody)
chain: QVQLQQSGGGSVQAGGSLRLSCVGPQRTFSTYGMGWFRQAPGKEREFVAGINYKGDTTYYADSVKGRFTISRDNAKNTLYLQMDSLKPEDRAVYQCARKGGLGGDYRDAGQYRYWGQGTQVTVSSGGGGSGGGSEVQLVESGGGLVQPGGSLRLSCEASGFTFDDYGMSWVRQAPGKGLEWVSSLTPNGGSTYYADSVKGRFTISRDNAKNTLYLQMNSLKPEDTALYYCAKNSYYGAMDYWGQGTQVTVSSHHHHHH
B2: SVT06-GS2-SVG13M4-H6 (bispecific antibody)
chain: QVQLQESGGGSVQAGGSLRLSCTASELSYDDYTIAWFRRAAGEGRVEDGEGVASITKSYDRAYDNKINYGHSVKGRFTISRDNAKNTVYLQMTDLLPSDTAVYYCALDITPPGGVGASLTEGFLFDYWGQGTQVTVSSGGGGSGGGSEVQLVESGGGLVQPGGSLRLSCEASGFTFDDYGMSWVRQAPGKGLEWVSSLTPNGGSTYYADSVKGRFTISRDNAKNTLYLQMNSLKPEDTALYYCAKNSYYGAMDYWGQGTQVTVSSHHHHHH
B3: SVT15-3FW4M-GS2-SVG13M4-H6 (bispecific antibody)
chain: QVQLQESGGGLVQTGGSLRLSCRASGRAFANYHFGWFRQAPGKDREFVASISWKGGSTYYANFALGRFTSSVDRAESSVYLQMSGLTPEDTATYYCAAHDGGDWNYHTGMDYWGQGTQVTVSSGGGGSGGGSEVQLVESGGGLVQPGGSLRLSCEASGFTFDDYGMSWVRQAPGKGLEWVSSLTPNGGSTYYADSVKGRFTISRDNAKNTLYLQMNSLKPEDTALYYCAKNSYYGAMDYWGQGTQVTVSSHHHHHH
B4: SVT02-GS2-SVA12M2-H6 (bispecific antibody)
chain: QVQLQQSGGGSVQAGGSLRLSCVGPQRTFSTYGMGWFRQAPGKEREFVAGINYKGDTTYYADSVKGRFTISRDNAKNTLYLQMDSLKPEDRAVYQCARKGGLGGDYRDAGQYRYWGQGTQVTVSSGGGGSGGGSEVQLVESGGGLVQAGGSLRLSCAASGRTFSYYPMAWFRQAPGQEREFVAAIIGADTTYYADSLKGRFTISRDNAKNMVYLQMNSLKPEDTAVYYCAARNTYWSDVYYREGQYTNWGQGTQVTVSSHHHHHH
B5: SVT15-3FW4M-GS2-SVG06M4-H6 (bispecific antibody)
chain: QVQLQESGGGLVQTGGSLRLSCRASGRAFANYHFGWFRQAPGKDREFVASISWKGGSTYYANFALGRFTSSVDRAESSVYLQMSGLTPEDTATYYCAAHDGGDWNYHTGMDYWGQGTQVTVSSGGGGSGGGSEVQLVESGGALVQPGGSLRLSCAASGFPFSAYDMTWVRQAPGQGLEWVSTIHKSGGITTYADSVKGRFTISRDNAKNTLYLQMNNLESEDTAVYYCAKALRAHNSDYVGRNALGSWGQGTQVTVSSHHHHHH
B6: SVT02 (VHH)
VHH: QVQLQQSGGGSVQAGGSLRLSCVGPQRTFSTYGMGWFRQAPGKEREFVAGINYKGDTTYYADSVKGRFTISRDNAKNTLYLQMDSLKPEDRAVYQCARKGGLGGDYRDAGQYRYWGQGTQVTVSS
B7: SVT03 (VHH)
VHH: QVQLQQSGGGSVQTGDSLTLSCTASGGSLNSYFVGWFRQSGGKEREFVSVIARTGRSTSYADSVKGRFTISRDNAANTVFLTMNNLRPDDTAIYYCAAVGRPGVLHLTQSYDYWGQGTQVTVSS
B8: SVT02L (VHH)
VHH: B6 VHH
notes: yeast-produced
B9: SVT03L (VHH)
VHH: B7 VHH
notes: yeast-produced

Columns and labels:
[1] = target: T2, tetanus neurotoxin (TeNT), authentic tetanus holotoxin (Clostridium tetani, UniProt P04958 2-1315); test: bridging ELISA: coated dog IgG, SDA, biotinylated TeNT, StrepPO
Target sequence in this assay (P04958 2-457 limits assumed, chain 1 of 2): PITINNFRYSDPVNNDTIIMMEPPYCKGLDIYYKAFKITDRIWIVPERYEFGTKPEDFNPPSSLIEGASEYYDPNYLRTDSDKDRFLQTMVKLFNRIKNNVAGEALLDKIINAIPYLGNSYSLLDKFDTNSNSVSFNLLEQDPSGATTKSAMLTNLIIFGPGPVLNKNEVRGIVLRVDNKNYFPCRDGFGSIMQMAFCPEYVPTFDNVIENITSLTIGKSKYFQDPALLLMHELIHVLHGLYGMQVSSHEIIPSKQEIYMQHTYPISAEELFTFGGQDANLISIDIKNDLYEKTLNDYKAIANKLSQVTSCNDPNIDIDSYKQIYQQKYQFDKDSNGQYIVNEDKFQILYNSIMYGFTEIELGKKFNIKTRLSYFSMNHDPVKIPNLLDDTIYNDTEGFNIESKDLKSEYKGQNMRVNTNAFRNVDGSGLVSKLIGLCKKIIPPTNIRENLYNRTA
Target sequence in this assay (P04958 458-1315 limits assumed, chain 2 of 2): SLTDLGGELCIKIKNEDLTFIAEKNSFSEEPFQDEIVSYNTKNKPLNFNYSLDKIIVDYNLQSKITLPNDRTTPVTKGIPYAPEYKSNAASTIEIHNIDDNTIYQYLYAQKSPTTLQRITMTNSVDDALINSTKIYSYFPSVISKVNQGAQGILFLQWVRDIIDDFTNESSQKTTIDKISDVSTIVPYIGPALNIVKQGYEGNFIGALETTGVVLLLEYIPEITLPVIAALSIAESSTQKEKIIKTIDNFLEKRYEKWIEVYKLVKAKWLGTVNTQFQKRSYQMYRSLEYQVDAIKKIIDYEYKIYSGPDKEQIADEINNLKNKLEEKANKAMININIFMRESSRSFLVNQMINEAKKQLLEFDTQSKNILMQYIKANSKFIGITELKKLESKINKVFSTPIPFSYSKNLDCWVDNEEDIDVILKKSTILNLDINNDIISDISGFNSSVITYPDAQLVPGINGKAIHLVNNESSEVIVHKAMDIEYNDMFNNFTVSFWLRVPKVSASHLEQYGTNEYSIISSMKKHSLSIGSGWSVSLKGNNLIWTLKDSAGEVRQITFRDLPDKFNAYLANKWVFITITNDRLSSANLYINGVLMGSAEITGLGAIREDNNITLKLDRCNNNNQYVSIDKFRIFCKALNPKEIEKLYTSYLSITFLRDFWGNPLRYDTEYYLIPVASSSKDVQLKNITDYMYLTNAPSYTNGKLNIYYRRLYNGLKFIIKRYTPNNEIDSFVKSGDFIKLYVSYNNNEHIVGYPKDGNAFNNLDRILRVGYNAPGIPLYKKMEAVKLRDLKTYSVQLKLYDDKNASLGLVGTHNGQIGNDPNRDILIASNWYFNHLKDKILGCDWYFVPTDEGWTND

[2] = target: T2, tetanus neurotoxin (TeNT), authentic …; test: ELISA: directly coated TeNT, anti-his6 PO
Target sequence in this assay (P04958 2-457 limits assumed, chain 1 of 2): as the sequence (P04958 2-457 limits assumed, chain 1 of 2) above
Target sequence in this assay (P04958 458-1315 limits assumed, chain 2 of 2): as the sequence (P04958 458-1315 limits assumed, chain 2 of 2) above

[3] = target: T2, tetanus neurotoxin (TeNT), authentic …; test: BLI (Octet Red96): biotinylated TeNT on SA sensor, SDA as analyte
Target sequence in this assay (P04958 2-457 limits assumed, chain 1 of 2): as the sequence (P04958 2-457 limits assumed, chain 1 of 2) above
Target sequence in this assay (P04958 458-1315 limits assumed, chain 2 of 2): as the sequence (P04958 458-1315 limits assumed, chain 2 of 2) above

[4] = target: T2, tetanus neurotoxin (TeNT), authentic …; test: GT1b-TeNT inhibition ELISA
Target sequence in this assay (P04958 2-457 limits assumed, chain 1 of 2): as the sequence (P04958 2-457 limits assumed, chain 1 of 2) above
Target sequence in this assay (P04958 458-1315 limits assumed, chain 2 of 2): as the sequence (P04958 458-1315 limits assumed, chain 2 of 2) above

[5] = target: T2, tetanus neurotoxin (TeNT), authentic …; test: cell-based or functional assay
[6] = target: T2, tetanus neurotoxin (TeNT), authentic …; test: bridging ELISA: coated TeNT, SDA, biotinylated TeNT, StrepPO (bivalent binding)
Target sequence in this assay (P04958 2-457 limits assumed, chain 1 of 2): as the sequence (P04958 2-457 limits assumed, chain 1 of 2) above
Target sequence in this assay (P04958 458-1315 limits assumed, chain 2 of 2): as the sequence (P04958 458-1315 limits assumed, chain 2 of 2) above

[7] = target: T2, tetanus neurotoxin (TeNT), authentic …; test: bridging ELISA: coated dog IgG, SDA, biotinylated TeNT, StrepPO; remark: listed apart in the source
Target sequence in this assay (P04958 2-457 limits assumed, chain 1 of 2): as the sequence (P04958 2-457 limits assumed, chain 1 of 2) above
Target sequence in this assay (P04958 458-1315 limits assumed, chain 2 of 2): as the sequence (P04958 458-1315 limits assumed, chain 2 of 2) above

[8] = target: T2, tetanus neurotoxin (TeNT), authentic …; test: bridging ELISA: coated TeNT, SDA, biotinylated TeNT, StrepPO (bivalent binding); remark: listed apart in the source
[9] = target: dog IgG (chrompure dog IgG) (dog)
[10] = target: T2, tetanus neurotoxin (TeNT), authentic …; test: GT1b-TeNT inhibition ELISA; remark: listed apart in the source
[11] = target: T2, tetanus neurotoxin (TeNT), authentic …; test: ELISA: directly coated TeNT, anti-his6 PO; remark: listed apart in the source
[12] = target: T2, tetanus neurotoxin (TeNT), authentic …; test: ELISA: directly coated TeNT, goat anti-llama Ig PO
[13] = target: T2, tetanus neurotoxin (TeNT), authentic …; test: ELISA: directly coated TeNT, goat anti-llama Ig PO; remark: listed apart in the source
[14] = target: dog IgG (chrompure dog IgG) (dog); remark: listed apart in the source
dog albumin (dog Alb) [15] = target: T3, dog albumin (dog Alb) (dog, UniProt P49822 25-608); test: ELISA: coated dog Alb, anti-his6 PO
T3 construct: also called Canine albumin
T3 sequence (P49822 25-608 limits assumed): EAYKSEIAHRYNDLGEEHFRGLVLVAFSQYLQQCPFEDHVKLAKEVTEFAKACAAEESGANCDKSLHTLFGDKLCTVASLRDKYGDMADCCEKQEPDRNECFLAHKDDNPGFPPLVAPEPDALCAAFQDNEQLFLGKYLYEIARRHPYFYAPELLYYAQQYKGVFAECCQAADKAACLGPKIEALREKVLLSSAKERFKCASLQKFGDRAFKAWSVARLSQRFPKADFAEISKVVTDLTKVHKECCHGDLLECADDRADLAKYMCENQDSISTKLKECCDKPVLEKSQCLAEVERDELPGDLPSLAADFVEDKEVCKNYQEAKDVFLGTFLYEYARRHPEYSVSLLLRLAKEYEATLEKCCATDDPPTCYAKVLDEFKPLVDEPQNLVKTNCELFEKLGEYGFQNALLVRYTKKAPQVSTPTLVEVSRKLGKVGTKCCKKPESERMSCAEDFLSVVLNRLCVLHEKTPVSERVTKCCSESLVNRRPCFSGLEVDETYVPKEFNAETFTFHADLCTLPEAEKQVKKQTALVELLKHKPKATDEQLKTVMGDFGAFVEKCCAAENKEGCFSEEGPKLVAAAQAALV

dog albumin (dog Alb) [16] = target: T3, dog albumin (dog Alb); test: ELISA: coated dog Alb, anti-his6 PO; remark: listed apart in the source
[17] = target: T4, horse albumin (horse Alb) (horse, UniProt P35747 25-607); test: bridging ELISA: cAb-TT2-captured TeNT, SDA, biotinylated horse Alb, StrepPO
T4 sequence (P35747 25-607 limits assumed): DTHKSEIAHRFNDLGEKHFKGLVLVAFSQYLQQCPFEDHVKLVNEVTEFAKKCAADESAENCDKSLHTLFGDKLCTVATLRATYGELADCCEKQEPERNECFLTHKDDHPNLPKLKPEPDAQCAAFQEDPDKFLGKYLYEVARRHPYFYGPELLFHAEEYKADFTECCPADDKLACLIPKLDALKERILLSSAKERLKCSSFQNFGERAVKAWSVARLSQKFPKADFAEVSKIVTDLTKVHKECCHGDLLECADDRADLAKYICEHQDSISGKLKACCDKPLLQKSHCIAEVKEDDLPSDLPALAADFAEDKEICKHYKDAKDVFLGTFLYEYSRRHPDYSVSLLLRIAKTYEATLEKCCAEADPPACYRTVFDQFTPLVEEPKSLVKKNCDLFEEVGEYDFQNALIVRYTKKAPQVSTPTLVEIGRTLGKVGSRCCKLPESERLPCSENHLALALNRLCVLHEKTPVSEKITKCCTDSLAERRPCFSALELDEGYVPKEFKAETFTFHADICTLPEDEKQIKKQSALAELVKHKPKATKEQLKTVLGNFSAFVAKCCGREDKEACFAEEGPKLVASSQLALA

[18] = target: T4, horse albumin (horse Alb); test: as above; remark: listed apart in the source
[19] = target: T1, recombinant tetanus toxin fragment C …; test: ELISA, directly coated rTTC
[20] = target: T5, tetanus neurotoxin (TeNT), authentic tetanus holotoxin (Clostridium tetani, UniProt P04958 2-1315); test: GT1b-TeNT inhibition ELISA (no SDA: 1.302, 1.257)
[21] = target: T1, recombinant tetanus toxin fragment C …; test: ELISA, directly coated rTTC, E. coli supernatant
[22] = target: T5, tetanus neurotoxin (TeNT), authentic …; test: ELISA, directly coated TeNT, E. coli supernatant
[23] = target: T5, tetanus neurotoxin (TeNT), authentic …; test: ELISA, cAb-TT2 captured TeNT, E. coli supernatant

| Binder | Effective SDA Concentration at A450 0.3 [1] | maximal absorbance value [2] | Kd [3] | koff [3] | kon [3] | minimal absorbance value (GT1b-TeNT inhibition) [4] | Endpoint dilution factor [5] | SDA concentration providing full protection [5] | Effective SDA Concentration at A450 0.3 [6] | maximal absorbance value [7] | maximal absorbance value [8] | maximal absorbance value [9] | Effective SDA Concentration at A450 0.56 [10] | Effective SDA Concentration at A450 0.15 [11] | Effective SDA Concentration at A450 0.15 [12] | maximal absorbance value [13] | binding result [19] | also measured |
| --- | --- | --- | --- | --- | --- | --- | --- | --- | --- | --- | --- | --- | --- | --- | --- | --- | --- | --- |
| B1 | 9.1 ng/mL | 0.06 A450 | 0.0987 nM | 0.000121 s⁻¹ | 1.23e+06 M⁻¹ s⁻¹ | 0.77 A450 | < 1 | > 1000 nM | > 1000 ng/mL | 1.32 A450 | 0.19 A450 | 0.18 A450 | > 1000 ng/mL | > 1000 ng/mL | > 1000 ng/mL | 0.09 A450 | – | – |
| B2 | < 0.49 ng/mL | 1.44 A450 | 0.123 nM | 8.24e-05 s⁻¹ | 670000 M⁻¹ s⁻¹ | 0.22 A450 | 2.4 | 1000 nM | 9.6 ng/mL | 1.61 A450 | 0.98 A450 | 1.18 A450 | 93 ng/mL | 3.4 ng/mL | 2 ng/mL | 1.2 A450 | – | Effective SDA Concentration at A450 0.2 [14]: 46 ng/mL; Potency IU/mg [5]: 1.04 IU/mg |
| B3 | 2.2 ng/mL | 1.51 A450 | 0.0158 nM | 6.77e-06 s⁻¹ | 429000 M⁻¹ s⁻¹ | 0.13 A450 | 2.8 | 500 nM | 23 ng/mL | 1.47 A450 | 0.78 A450 | 1 A450 | 77 ng/mL | 4.9 ng/mL | 2 ng/mL | 1.16 A450 | – | Effective SDA Concentration at A450 0.2 [14]: 63 ng/mL; Potency IU/mg [5]: 1.21 IU/mg |
| B4 | – | – | – | – | – | – | – | – | – | – | – | – | – | – | – | – | – | maximal absorbance value (dog albumin (dog Alb) [15]): 1.91 A450; Effective SDA Concentration at A450 0.2 (dog albumin (dog Alb) [16]): 13 ng/mL; Effective SDA Concentration at A450 0.7 [17]: 11 ng/mL; maximal absorbance value [18]: 1.1 A450 |
| B5 | 8.3 ng/mL | 0.37 A450 | – | – | – | 0.12 A450 | – | – | > 1000 ng/mL | 1.3 A450 | 0.29 A450 | 0.07 A450 | 131 ng/mL | 37 ng/mL | 4.3 ng/mL | 1.23 A450 | – | – |
| B6 | – | – | – | – | – | – | – | – | – | – | – | – | – | – | – | – | no binding (tested: tenfold diluted supernatant) | absorbance at 450 nm [20]: 1.34 A450; absorbance at 450 nm [21]: 0.06 A450; absorbance at 450 nm [22]: 0.078 A450; absorbance at 450 nm [23]: 0.511 A450 |
| B7 | – | – | – | – | – | – | – | – | – | – | – | – | – | – | – | – | no binding (tested: tenfold diluted supernatant) | absorbance at 450 nm [20]: 1.29 A450; absorbance at 450 nm [21]: 0.061 A450; absorbance at 450 nm [22]: 0.091 A450; absorbance at 450 nm [23]: 0.534 A450 |
| B8 | – | – | – | – | – | – | – | – | – | – | – | – | – | – | – | – | no binding | – |
| B9 | – | – | – | – | – | – | – | – | – | – | – | – | – | – | – | – | no binding | – |
